Measurements reported in the nanobody polyreactivity screen of Harvey et al. (2022).

Assay: yeast display, Sf9 membrane polyspecificity reagent, FACS + sequencing; frameworks hold sequencing errors
Procedure, shortened: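 Galactose induction of a Saccharomyces cerevisiae BJ5465 synthetic nanobody display library ran 36–48 hours. The cells were then stained for 1 hour at 4 °C with 10% biotinylated, detergent-solubilized Sf9 membrane reagent, pulled down on streptavidin microbeads and FACS-sorted into low and high (top ~1%) gates on expression and reagent-binding fluorescence. Labels for polyreactivity follow the gate of origin.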

Sequence | polyreactivity (PSR sort gate)
QDQLVESGGFLVQAGGSLRLSCAASGRTFSYYDMGWYRQAPGKERELVAAISSGGSTNYADSVKARFTISRENAKNTFYLQMNSLKPEDTGVSYCATSCIWGYGRVRWVTYYYWGQGTQVTVSS | low polyreactivity
QVQLVESGGGLVQAGGSLRLSCAASGPTFDYYAMGWYRQAPGKERELVAAISYSGGNSYYADSVKGRFTISRDNAKNTVYLQMNSLKPEDTAVYYWAANPAARDGRKTGYFCGQGTQVTVSS | high polyreactivity
QVQLVESGGGLVQAGGSLRLSCAASGITYTVYAMGWYRQAPGKERELVAVINESGGSTYYADSVKGRFTISRDNAKNTVYLQMNSLKPEDTAVYYCNKTRVYVSSTYDYWGLGTQVTVSS | low polyreactivity
QVQLVESGGGVVQAGRSLRLSCAASGRLFVRNAMGWYRQAPGKDRELVAAITSVGDTYYADSVKGRFTISRDNAKNTVYLQMNSLKPVDTAVYYCAVYLWSGWGYPEYNYWGQGTQVTVSS | low polyreactivity
QVQLVESGGGLVQAGGSLRLSCAASGSIFVPYTMGWYTQAPGKERELVASISYSGGTTYYADSVKGRFTISRDNAKNTVYLQMNSLKPEDTAVYYCAADWDESFSYRRYRHYDYWGQGTQVTVSS | low polyreactivity
QVHLVESGVGLVQAGGSLRLSCAASGQIFPYYAMGWYRPAPGKETELVAAITSGGGTYYADSVKGRFTISRDNAKNTVYLQMNSLKPEDTAVYYCAVGSYGHPKHRRNLDYWGQGTQVTVSS | low polyreactivity
QVQLVESGGGLVQAGGSLRLSCAASGIIFDFYAMGWYRQAPGKEWELVAAITVSGGSTYYADSVKGRFTISRDNAKNTVYLQMNSLKPEDTAVYYCAAVGDWYVSYYEMDYWGQGTQVTVSS | low polyreactivity
QVQLVESGGGLVQAGGSLRLSCAASGSTFWLYAMGWYRQAPGKERELVAAIRSGDRTNYADSVKGRFTISRDNAKHTVYLQMNSLKPEDTAVYYCAVRRWGTSFVEDDYWGQGTQVTVSS | low polyreactivity
QVQLVESGGGLVQAGGSLRLSCAASGRIFNPYVMGWYRPAPGKERELVAAISSGGRTYYADSVKGRFTISRDNAKNTVYLQMNSLKPEDTTVYYCAREQYRRYSGYGYWGQGTQVTVSS | high polyreactivity
QVQLVESGGALVQAGGSLRLSCAASGIIFTPYAMGWYRQAPGKERQLLAAISWSGGRTYYADSVKGRFTISRDNAKNTVYLQMNSLKPEATAVYYCNARRYWWPHYYEYDYWGQGTHVTVSS | high polyreactivity
QVQLVESGGGLVKAGGSLRLSCAASGSTFLWTTMGWYRPAPGKERELVAAISRSGGSTYYADSVKGRFTISRDNAKNTVYLQMISLKPEDTAVYYCAARTAGPWSWYHYWGQGTQVTVSS | high polyreactivity
QVQLVESGGGLVQAGGSLRLSCAAAGSIFVWYVMGWYRQAHGKEMELVAAITWSAARTYYADSVKGRFTISRDNAKNTVYLLMNSLKPEDTAVYYCAADHVSYQPSSRIFDYWGQGTQVTVSS | low polyreactivity
QVQLVESGGGLVQAGASLRLSCAASGRTFHYYVKGWYRQAPGKERELVAAISRSGGRTYYADSVKGRFTISRDNAKNTVYLQMNSLNPEDTAVYFCAARSGYYYSEGAWRRDYWGQGTQVTLSS | high polyreactivity
QVQLVESGGGLVQAGGSLHLSCAASGRIFGKYAMGWYRQAPGKEREFVAAIRSSDGNTYYADSVKGRFTISRDNAKNTVYLQMNSLKPEDTAVYYCAARGTLWTYGYWGQGTQVTVSS | high polyreactivity
QVQLVESGGGLVQAGGSLRLSCAASGSIFFYYAMGWYRQAPGKERELVAAINSDGSTNYADSVKGRFTISRDNAKNTVYLQMNSLKPEDTAVYYCNADTPYYQGEYNYWGQGTQVTVSS | low polyreactivity
QVQLVESGGGLVQAGGSLRLSCAASGSTLGGYAMGWYRQAPGKERELVASISWDDVRTYYADSVKGRFTISRDNAKNTVYLQMNSLKPEDTAVYYCAKGDIEYFWSRIYGYWGQGTQVTVSS | low polyreactivity
QVQLVESGGGLVHAGGSLRLSCAASGFTFRSYAMGWYRQAPGKERELVAAISWSGGSTYYADSVKGRYTISRDNAKNTVYLQMNSLKPEDTAVYYCAAVRVSKYDYWGQGTQVTVSS | high polyreactivity
QVQLVESGGGLVQAGGSLRLSCAASGSTFTPYTMGWYRQAPGKERELVATITGSDGSTYYADSVKGRFTISRDNAKNTVYLQMNSLKPEDTAVYYCYADETRWTWDPFSYICDDYWGQGTQVTVSS | low polyreactivity
QVQLVESGGGLVQAGGSLRLICAASGRTFRYYAMGWYRQAPGKERELVAAITTGSSTYYADSVKGRFTISRDNAKNTVYLQMNSLKPEDTAVYYCNVFQGTRYGYWGQGTQVTVSS | low polyreactivity
QVQLVESGGGLVQAGGSLRISCAASGFTFGPYAMGWYRQAPGKERELVAAISQSGGRTSYADSVKGRFTISRDNAKNTVYLQMNSLKPEDTAVYYCAKRAYGYRSIYRMDYWGQGTQVTVSS | high polyreactivity
QVQLVESGGGLVQAGGSLRLSCAASRSIFYFYAMGWYRHAPWKERELVAAINSGGTTNYADSVKGRFTISRDNAKNTVYSQMNSLKPEDTAVYYCAARLLIRYYYWGQGTLVTVSS | high polyreactivity
QVQLVESGGGLVQAGGSLRLSCAASGRTFQDNAMGWYRQAPGKERELVAAISWRGGSTNYADSVKGRFTISRDNAKNTVYLQMNSLKPEDTAVYYCAKGIRRWYGGSDYWGQGTQVTVSS | low polyreactivity

Sequence | polyreactivity (PSR sort gate)
QVQLVESGGGLVQAGGSLRLSCAASGSIFARNAMGWYRQAPGKERELVASITWSGASTYYADSVKGRFTISRDNAKNTVYLQMNSLKPADTSFYYSAATDQNLSLDYSSYEYRGQGTQVTVSS | low polyreactivity
QVQLVESGGGLVQAGGSLRLSCAASGSIFRSYAMGWYRQAPGKERELVAAISRRGSSTYYADSVKGRFTISRDNAKNTVYLQMNSLKPEDTAVYYCAADRVVPRGRYGGDYWGQGTQVTVSS | high polyreactivity
QVQLVESGGGLVQAGGSLRLSCAASGRIFRINAMGWYRQAPGKERELVATITSGGRTKYADSVKGRFTISRDNAKNTVYLQMNSLKPEDTAVYYCAADWRVRVRQHIPDKYDYWGQGTQVTVSS | low polyreactivity
QVQLVESGGGLVQAGGSLRLSCAASGSTFAANAMGWYRQAPGKERELVAAMTSSGGSTYYADSVKGRFTISRDNAKNTVYLQMNSLKPEDTAVYYCNKDIERYVRIYDSWGQGTQVTVSS | low polyreactivity
QVQLVESGGGLVQAGGSLRLSCAASGRTFSVNAMGWYREAPGKEREFVAGISYSGNTYYADSVKGRVTISRDNAKKTAYLQMNSLKPEDTAVYYCAARRGYNDGYWGQGTQVTVSS | high polyreactivity
QVQLVESGGGLVQAGGSLRLSSAATGSIFLSNMGWYRQAPGKERELVAAIYRNGGSTYYADSVKGRFTISRDNAKNTVYLQMNSLKPEDTAVYYCAVQRYWGQGTQVTVSS | high polyreactivity
QVQLVESGGGLVQAGGSLRLSCAASGFTFGFYAMGWYRQGPGKERELVAASTRSGGTTYYADSVKGRFTISRDNAKNTVYLQMNSLKPEDTAVYYCAADYTKYYRRYYYWGQGTQVTVSS | high polyreactivity
QVQLVESGGGLVQAGGSLRLSCAATGSIFFDNAMGWYRQAPGHERELVAAITSSGGRTYYADSVKGRFTISRDNAKNTVYLQMNSLKPEDTAVYYCAASPKYTTGRYSGEYWGQGTQVTVSS | low polyreactivity
QVQLVESGGGLVQAGGSLRLSCAASGITFTQYAMGWYRQAPGKERELVAAISKRGGRTYYADSVKGRFTISRDNAKNTVYLQMNSLKPEDTAVYYCATVPYGEVDYWGQGTQVTVSS | high polyreactivity
QLQLVESGGGLVQAGGSLRISCAASGFTFRYYAMGWYRQAPGKERKFVAGIDFGAITNYADSVKGRFTISRDNAKNTEYLQMSSLKPEDTAVYYCAAGVYDWYAYDYWGQGTQVTVSS | high polyreactivity
QVQLVESGGGLVQAGGSLRLSCAASGRTFRIYAMGWYRHAPRKERELVAAIRWSGGTTYYADSVKGRFSISRDNAKNTVYLQMTSLKPEDTAVYYCAADSTNRYDYCGQGTQVTVSS | high polyreactivity
QVQLVESGGGLVQAGGSLRLSCAASGLTFSYYARGWYRQAPGKERELVAAISWSGDSTYYADSVKGRFTISRDNAKNTVYVQMHSLKPEDTAVYYCAVVSDFYTPYTGWPFLDYEYWGQGTQVTVSS | low polyreactivity
QVQLVESGGGLVHAGGSLRLSCAASGRTFRDNVMGWSRQAPGKERELVAAISRSGGSTYYADSVKGRFTISRDNAKHTVYLQMNSQKPEDTAVYYSNAPYYVRSQYTFDYWGQGTQVTVSS | high polyreactivity
QVQLVESGGGLVQAGGSLRLSFAASGRIFLRYAMVWYRHAPGKERELVAAISSRGGRTYYADSVKGRFTISRDNAKNTVYLQMNSLKPEDTAVYYCAAEGYYVTPFDYWGQGTQVTVSS | high polyreactivity
QVQLVESGGGLVQAGDSLRLSCAASGSIFVYYAMGWYRQAPGKERELVASISKTGGRTYYADSVKGRFTISRDNAKNTVFLQMNSLKPEDTAVYYCAARYTIRYKRYDYWGQGSQVTVSS | high polyreactivity
QVQLVESGGGLVQAGGSLRLSCAASGRIFGTNAMGWYRQAPGKERELVAAISRSGGSTYYADSVKGRFTISRDNAKNTVYLQMNSLKPEDTAVYYCATDGRHTYYYWGQGTQVTVSS | high polyreactivity
QVQLVESGGGLVQAGGSLRLSCAASGRTFWRNAMGWYRQAPGKERELVAAISSSGDRTYYADSVKGRFTISRDNANNTVYLQMNSLKPEDTAVYYCAADVRYSSRFYYWGQGTQVTVSS | high polyreactivity
QVQLVESGGGLVQAGGSLRLSCAASGRTFYLYAMVCYRQAPGKERELVAAITNRGGSTYYADSVKGRFTISRDNAKNTVYLQMNSLKPEDTAVYYCAAQVSVYRGGYGYWGQGTQVTVSS | high polyreactivity
QVQLVESGGGLVQAGGSLRLSCAASGRTFGWYTMGWYRPAPGKERELVAAISRSGTSTYYADSVKGRFTISRDNAKNTVYLQMNSLKQEDTAVYYCAQYVNPRGGNYWGQGTQVTVSS | high polyreactivity
QVQLVESGGGLVQAGGSLRLSCAASGRTFHYYAMVWYRQAPWKERELVAGITAGGSTYYADSVKGRFTISRDNAKNTVYLLMNSLKPEDNSGYYCAADRSYYGYGYWGKGTQVTVSS | low polyreactivity
QVQLVESGGGLVQAGGSLRLSCAASGITFRRYTMGWYRQAPGKERELVAAITTNAGSTYYADSVKGRFTISRDNAKNTVYLQMNSLKPEDTAVYYCAARWYYPYRTRYSSSYGYWGQGTQVTVSS | high polyreactivity
